Measured values taken from patent publication US20210388087A1 (Chugai, published 2021).
Changes are numbered by the printed parent chain. Names and notes keep the numbering of the source. Values belong to the binder of their own block, whether it stands above or below them.

Molecular target: T1, CD3 epsilon homodimer protein (UniProt P07766 23-126)
T1 construct: immobilized on Sensor chip CM4 by amine coupling; also called CD3 (CD3 epsilon)
Assay: SPR (Biacore T200), CD3 epsilon homodimer on CM4 chip, one-arm antibody as analyte, 25 C;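 further: homodimer attached to the sensor surface via amine coupling, HBS-EP+ used as running buffer during binding runs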

T1 sequence (P07766 23-126): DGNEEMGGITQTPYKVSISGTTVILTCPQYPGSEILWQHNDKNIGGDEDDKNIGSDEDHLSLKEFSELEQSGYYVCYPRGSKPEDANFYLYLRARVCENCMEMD

B1: CE115HA000 H35M one-arm antibody (antibody, human IgG1, kappa, L234A L235A, N297A, name in Kabat numbering)
heavy: QVQLVESGGGVVQPGRSLRLSCAASGFTFSNAWMMWVRQAPGKGLEWVAQIKAKSNNYATYYAESVKGRFTISRDDSKNSLYLQMNSLKTEDTAVYYCRYVHYGAYYGVDAWGQGTTVTVSSASTKGPSVFPLAPSSKSTSGGTAALGCLVKDYFPEPVTVSWNSGALTSGVHTFPAVLQSSGLYSLSSVVTVPSSSLGTQTYICNVNHKPSNTKVDKKVEPKSCDKTHTCPPCPAPEAAGGPSVFLFPPKPKDTLMISRTPEVTCVVVDVSHEDPEVKFNWYVDGVEVHNAKTKPREEQYASTYRVVSVLTVLHQDWLNGKEYKCKVSNKALPAPIEKTISKAKGQPREPQVYTLPPSRCELTKNQVSLSCAVKGFYPSDIAVEWESNGQPENNYKTTPPVLDSDGSFFLVSKLTVDKSRWQQGNVFSCSVMHEALHNHYTQKSLSLSPDYKDDDDK
chain: EPKSSDKTHTCPPCPAPELLGGPSVFLFPPKPKDTLMISRTPEVTCVVVDVSHEDPEVKFNWYVDGVEVHNAKTKPREEQYNSTYRVVSVLTVLHQDWLNGKEYKCKVSNKALPAPIEKTISKAKGQPREPQVCTLPPSRDELTKNQVSLWCLVKGFYPSDIAVEWESNGQPENNYKTTPPVLDSDGSFFLYSKLTVDKSRWQQGNVFSCSVMHEALHNRYTQKSLSLSP
light: DIVMTQSPLSLPVTPGEPASISCRSSQSLVHSNRNTYLHWYQQKPGQAPRLLIYKVSNRFSGVPDRFSGSGSGTDFTLKISRVEAEDVGVYYCGQGTQVPYTFGQGTKLEIKRTVAAPSVFIFPPSDEQLKSGTASVVCLLNNFYPREAKVQWKVDNALQSGNSQESVTEQDSKDSTYSLSSTLTLSKADYEKHKVYACEVTHQGLSSPVTKSFNRGEC
- ratio of amounts bound (altered form / CE115HA000): 0.29

B2: CE115HA000 H96G one-arm antibody (antibody, human IgG1, kappa, L234A L235A, N297A, name in Kabat numbering)
heavy: B1 heavy with M35H, H102G
chain: B1 chain
light: B1 light
- ratio of amounts bound (altered form / CE115HA000): 0.43

B6: CE115HA000 H96Q one-arm antibody (antibody, human IgG1, kappa, L234A L235A, N297A, name in Kabat numbering)
heavy: B1 heavy with M35H, H102Q
chain: B1 chain
light: B1 light
- ratio of amounts bound (altered form / CE115HA000): 0.42

B7: CE115HA000 H35N one-arm antibody (antibody, human IgG1, kappa, L234A L235A, N297A, name in Kabat numbering)
heavy: B1 heavy with M35N
chain: B1 chain
light: B1 light
- ratio of amounts bound (altered form / CE115HA000): 0.35

B8: CE115HA000 K52D one-arm antibody (antibody, human IgG1, kappa, L234A L235A, N297A, name in Kabat numbering)
heavy: B1 heavy with M35H, K52D
chain: B1 chain
light: B1 light
- ratio of amounts bound (altered form / CE115HA000): 0.25

B9: CE115HA000 I51E one-arm antibody (antibody, human IgG1, kappa, L234A L235A, N297A, name in Kabat numbering)
heavy: B1 heavy with M35H, I51E
chain: B1 chain
light: B1 light
- ratio of amounts bound (altered form / CE115HA000): 0.55

B11: CE115HA000 K43E one-arm antibody (antibody, human IgG1, kappa, L234A L235A, N297A, name in Kabat numbering)
heavy: B1 heavy with M35H, K43E
chain: B1 chain
light: B1 light
- ratio of amounts bound (altered form / CE115HA000): 0.9

B12: CE115HA000 I51D one-arm antibody (antibody, human IgG1, kappa, L234A L235A, N297A, name in Kabat numbering)
heavy: B1 heavy with M35H, I51D
chain: B1 chain
light: B1 light
- ratio of amounts bound (altered form / CE115HA000): 0.29

B13: CE115HA000 K43Q one-arm antibody (antibody, human IgG1, kappa, L234A L235A, N297A, name in Kabat numbering)
heavy: B1 heavy with M35H, K43Q
chain: B1 chain
light: B1 light
- ratio of amounts bound (altered form / CE115HA000): 0.99

B14: CE115HA000 H96R one-arm antibody (antibody, human IgG1, kappa, L234A L235A, N297A, name in Kabat numbering)
heavy: B1 heavy with M35H, H102R
chain: B1 chain
light: B1 light
- ratio of amounts bound (altered form / CE115HA000): 0.46

B16: CE115HA000 H96P one-arm antibody (antibody, human IgG1, kappa, L234A L235A, N297A, name in Kabat numbering)
heavy: B1 heavy with M35H, H102P
chain: B1 chain
light: B1 light
- ratio of amounts bound (altered form / CE115HA000): 0.12

B17: CE115HA000 H35W one-arm antibody (antibody, human IgG1, kappa, L234A L235A, N297A, name in Kabat numbering)
heavy: B1 heavy with M35W
chain: B1 chain
light: B1 light
- ratio of amounts bound (altered form / CE115HA000): 0.22

B18: CE115HA000 H35R one-arm antibody (antibody, human IgG1, kappa, L234A L235A, N297A, name in Kabat numbering)
heavy: B1 heavy with M35R
chain: B1 chain
light: B1 light
- ratio of amounts bound (altered form / CE115HA000): 0.14

B19: CE115HA000 H96Y one-arm antibody (antibody, human IgG1, kappa, L234A L235A, N297A, name in Kabat numbering)
heavy: B1 heavy with M35H, H102Y
chain: B1 chain
light: B1 light
- ratio of amounts bound (altered form / CE115HA000): 0.17

B20: CE115HA000 H96L one-arm antibody (antibody, human IgG1, kappa, L234A L235A, N297A, name in Kabat numbering)
heavy: B1 heavy with M35H, H102L
chain: B1 chain
light: B1 light
- ratio of amounts bound (altered form / CE115HA000): 0.14

B22: CE115HA000 H35T one-arm antibody (antibody, human IgG1, kappa, L234A L235A, N297A, name in Kabat numbering)
heavy: B1 heavy with M35T
chain: B1 chain
light: B1 light
- ratio of amounts bound (altered form / CE115HA000): 0.26

B23: CE115HA000 H35V one-arm antibody (antibody, human IgG1, kappa, L234A L235A, N297A, name in Kabat numbering)
heavy: B1 heavy with M35V
chain: B1 chain
light: B1 light
- ratio of amounts bound (altered form / CE115HA000): 0.22

B25: CE115HA000 H35Y one-arm antibody (antibody, human IgG1, kappa, L234A L235A, N297A, name in Kabat numbering)
heavy: B1 heavy with M35Y
chain: B1 chain
light: B1 light
- ratio of amounts bound (altered form / CE115HA000): 0.16

B29: CE115HA000 H35S one-arm antibody (antibody, human IgG1, kappa, L234A L235A, N297A, name in Kabat numbering)
heavy: B1 heavy with M35S
chain: B1 chain
light: B1 light
- ratio of amounts bound (altered form / CE115HA000): 0.23

B31: CE115HA000 H96K one-arm antibody (antibody, human IgG1, kappa, L234A L235A, N297A, name in Kabat numbering)
heavy: B1 heavy with M35H, H102K
chain: B1 chain
light: B1 light
- ratio of amounts bound (altered form / CE115HA000): 0.38

B32: CE115HA000 H35Q one-arm antibody (antibody, human IgG1, kappa, L234A L235A, N297A, name in Kabat numbering)
heavy: B1 heavy with M35Q
chain: B1 chain
light: B1 light
- ratio of amounts bound (altered form / CE115HA000): 0.13

B33: CE115HA000 H96S one-arm antibody (antibody, human IgG1, kappa, L234A L235A, N297A, name in Kabat numbering)
heavy: B1 heavy with M35H, H102S
chain: B1 chain
light: B1 light
- ratio of amounts bound (altered form / CE115HA000): 0.44

Further lines, results first:

- ratio of amounts bound (altered form / CE115HA000): 0.26
B3: CE115HA000 K52E one-arm antibody (antibody, human IgG1, kappa, L234A L235A, N297A, name in Kabat numbering)
heavy: B1 heavy with M35H, K52E
chain: B1 chain
light: B1 light

- ratio of amounts bound (altered form / CE115HA000): 0.34
B4: CE115HA000 K52N one-arm antibody (antibody, human IgG1, kappa, L234A L235A, N297A, name in Kabat numbering)
heavy: B1 heavy with M35H, K52N
chain: B1 chain
light: B1 light

- ratio of amounts bound (altered form / CE115HA000): 0.67
B5: CE115HA000 K52bA one-arm antibody (antibody, human IgG1, kappa, L234A L235A, N297A, name in Kabat numbering)
heavy: B1 heavy with M35H, K54A
chain: B1 chain
light: B1 light

- ratio of amounts bound (altered form / CE115HA000): 0.22
B10: CE115HA000 K52W one-arm antibody (antibody, human IgG1, kappa, L234A L235A, N297A, name in Kabat numbering)
heavy: B1 heavy with M35H, K52W
chain: B1 chain
light: B1 light

- ratio of amounts bound (altered form / CE115HA000): 0.91
B15: CE115HA000 K52R one-arm antibody (antibody, human IgG1, kappa, L234A L235A, N297A, name in Kabat numbering)
heavy: B1 heavy with M35H, K52R
chain: B1 chain
light: B1 light

- ratio of amounts bound (altered form / CE115HA000): 0.28
B21: CE115HA000 K52S one-arm antibody (antibody, human IgG1, kappa, L234A L235A, N297A, name in Kabat numbering)
heavy: B1 heavy with M35H, K52S
chain: B1 chain
light: B1 light

- ratio of amounts bound (altered form / CE115HA000): 0.27
B24: CE115HA000 K52bD one-arm antibody (antibody, human IgG1, kappa, L234A L235A, N297A, name in Kabat numbering)
heavy: B1 heavy with M35H, K54D
chain: B1 chain
light: B1 light

- ratio of amounts bound (altered form / CE115HA000): 0.33
B26: CE115HA000 K52I one-arm antibody (antibody, human IgG1, kappa, L234A L235A, N297A, name in Kabat numbering)
heavy: B1 heavy with M35H, K52I
chain: B1 chain
light: B1 light

- ratio of amounts bound (altered form / CE115HA000): 0.22
B27: CE115HA000 K52H one-arm antibody (antibody, human IgG1, kappa, L234A L235A, N297A, name in Kabat numbering)
heavy: B1 heavy with M35H, K52H
chain: B1 chain
light: B1 light

- ratio of amounts bound (altered form / CE115HA000): 0.18
B28: CE115HA000 K52Y one-arm antibody (antibody, human IgG1, kappa, L234A L235A, N297A, name in Kabat numbering)
heavy: B1 heavy with M35H, K52Y
chain: B1 chain
light: B1 light

- ratio of amounts bound (altered form / CE115HA000): 0.17
B30: CE115HA000 K52F one-arm antibody (antibody, human IgG1, kappa, L234A L235A, N297A, name in Kabat numbering)
heavy: B1 heavy with M35H, K52F
chain: B1 chain
light: B1 light
